Measured values as given in article PMC7851562 (2020).

T1: coxsackievirus and adenovirus receptor (CAR), as used in SPR (UniProt P78310 20-365)
T1 chain: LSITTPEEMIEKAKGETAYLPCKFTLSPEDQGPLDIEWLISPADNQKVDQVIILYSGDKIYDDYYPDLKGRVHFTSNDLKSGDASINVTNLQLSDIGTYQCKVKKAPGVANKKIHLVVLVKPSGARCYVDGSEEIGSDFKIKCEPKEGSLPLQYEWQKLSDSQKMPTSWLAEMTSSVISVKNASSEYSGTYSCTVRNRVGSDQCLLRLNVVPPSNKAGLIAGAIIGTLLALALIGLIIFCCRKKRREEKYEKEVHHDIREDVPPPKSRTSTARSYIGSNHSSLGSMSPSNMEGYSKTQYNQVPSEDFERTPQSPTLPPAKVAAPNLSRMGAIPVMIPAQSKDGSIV

B1: human adenovirus type 49 fiber knob protein (domain or fragment)
chain: MRGSHHHHHHGSKKGDLVAWNKENDRRTLWTTPDPSPNCKVSEEKDSKLTLVLTKCGSQILASVSLLVVKGKFANINNKTNPGEDYKKFSVKLLFDANGKLLTGSSLDGNYWNYKNKDSVIGSPYENAVPFMPNSTAYPKIINNGTANPEDKKSAAKKTIVTNVYLGGDAAKPVATTISFNKETESNCVYSITFDFAWNKTYKNVPFDSSSLTFSYIAQDAEDKNE

Experiments:
[1] = target: coxsackievirus and adenovirus receptor (CAR) on CHO-CAR cells (UniProt P78310)
[2] = target: coxsackievirus and adenovirus receptor (CAR), as used in SPR (UniProt P78310); experiment: SPR; recombinant fiber knob protein over receptor; about 5,000 RU of DSG2-Fc amine coupled to a CM5 chip at 10 μl/min; in triplicate; CAR and CD46 surfaces as previously described (ref 36)
[3] = target: T1, coxsackievirus and adenovirus receptor …; experiment: SPR

Molecule	inhibition of HAdV-C5 transduction (luciferase) of CHO-CAR cells preincubated with recombinant HAdV-D49K [1] [%]	Kd [2] [nM]	koff [3] [s⁻¹]
human adenovirus type 49 fiber knob protein (domain or fragment)	50	190	
B1			0.0012
